Test results reported in article PMC11507749.

Molecular target: iLID-YFP-SNAP (2×Strep-iLID-EYFP-SNAP)
Experiment: light-induced membrane recruitment in GUVs

- half-time of dissociation from the membrane in the dark: 61.2 s
- half-time of dissociation in the dark: 41.8 s
Substance: mCherry-SspB(micro)
